Experimental data as given in patent US7431923.

Molecular target: T1, GST-EC2 (GST fusion of extracellular loop 2 of human CD63, amino acids 108-202) (human, UniProt P08962 108-202)
T1 construct: range 108-202; Expressed in E. coli BL-21; on blots as total bacterial lysate, in BIAcore captured by immobilised anti-GST antibody; Vector-encoded residues between GST and the loop are not described; also called EC2 fusion polypeptide; not shown: glutathione S-transferase as encoded by the bacterial expression vector PGEX-4T-2 (Amersham Biosciences)
T1 sequence (looked up): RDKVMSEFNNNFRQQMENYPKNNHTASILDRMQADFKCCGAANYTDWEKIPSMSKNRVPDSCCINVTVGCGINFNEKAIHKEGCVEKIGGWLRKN
Experiment: BIAcore, steady state; GST-EC2 captured on immobilised anti-GST antibody, antibody injected at 12.5 to 200 nM; KD as reciprocal of KA

Kd: 135 nM
B1: 7BD-33-11A monoclonal antibody (hybridoma ATCC PTA-4890) (antibody, V domains shown)
VH: EVQLQQSGPGLVKPGASVKMSCKASGYTFTSYVMHWVKQMPGQGLEWIGYITPYNDGTKYNEKFKGKATLTSDKSSSTAYMDLSSLTSEDSAVYYCVYGSRYDWYFDVWGAGTTVTVSS
VL: NIMMTQSPSSLAVSAGEKVTMSCKSSQSVLYSSNQKNYLAWYQQKPGQSPKLLIYWASTRESGVPDRFTGSGSGTDFTLTISSVQAEDLAVYYCHQYFSSYTFGGGTKLEIK
